From PMC7089426, “C8J_1298, a bifunctional thiol oxidoreductase of Campylobacter jejuni, affects Dsb (disulfide bond) network functioning” (PLoS ONE, 2020) come the findings set out here.

The data set concerns the molecule itself. The data set is described as follows: cross-linking; glutaraldehyde (0.0001-0.02% v/v), C8J_1298 at 1.8 mg/ml, room temperature, 20 min, 0.05 M bicine-NaOH pH 8.5, 0.1 mM DTT, 0.4 M NaCl; quenched with ethanolamine-HCl pH 8.0.

B1: C8J_1298, periplasmic dimeric thiol oxidoreductase of Campylobacter jejuni 81116 (recombinant, lacking the signal sequence, C-terminal His-Tag) (enzyme)
chain: ASNSEISDFYSKSIKAQFPNATVSVSNRQKVGNTGFESVIVSVELNGQKQENILFTKDSLITPDLIDLKTGISYAQEYEMKKFQEARENFTKNAKAVAQKETMVIALGDKNKPAIYVFSDPECPYCREHLAQIDDELKNYQVNYILTPVHGKSAFEKSALIYKEAKKAKNDKEKIAILNKYYDANIKNYPKVSDAELKEVFSLYEKYRSLGLSATPTIIK
Consider B1, for which the “stoichiometry N” value stood at 2.
